Biological target: SARS-CoV-2 RBD fused with SD1 (SARS-CoV-2, Wuhan-Hu-1 type, UniProt P0DTC2)
Experiment: ELISA

B1: mAb 2-4 (antibody, V domains shown)
VH: QVQLVQSGAEVKKPGASVKVSCKASGYTFTGYYMHWVRQAPGQGLEWMGWINPNSGGTNYTQMFQGRVTMTRDTSISTAYMEVSRLRSDDTAVYYCARDRSWAVVYYYMDVWGKGTTVTVSS
VL: QSALTQPPSASGSPGQSVTISCTGTSSDVGGYNYVSWYQQHPGKAPKLMIYEVSKRPSGVPDRFSGSKSGNTASLTVSGLQAEDEADYYCSSYAGSNNLVFGGGTKLTVL
B1: binds.
